Data reported in the supplement of paper PMC9732359.
± gives the uncertainty stated by the source.

Assay: protein stability index of a GFP-peptide fusion (yeast GPS) (PSI 1-4); higher = more stable; sorted into four equal gates, so the index is relative within each strain
Summary of the method: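 Sequencing reads from sorted gates were used to score each peptide. The library consisted of tiled 17-residue yeast protein peptides fused downstream of GFP on a Cherry-expressing plasmid, pooled and carried in yeast. Mid-log cultures in leucine-free medium were split into four equal gates by GFP/Cherry ratio, and each gate's plasmids were PCR-amplified and Illumina-sequenced. The protein stability index adds up, over all gates, the read frequency multiplied by the gate number.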

Sequence	protein stability index (doa10∆)	protein stability index (pdr5∆)	protein stability index (san1∆)	protein stability index (ubr1∆)
LMDKCLPKVRIRTRRAA [DIS3]	1.86 ± 0.06	1.34 ± 0.048	1.42 ± 0.085	1.5 ± 0.039
QDSNVMPGSQINSPMPQ [SNF2]	3.26 ± 0.2	3.12 ± 0.11	3.32 ± 0.12	3.12 ± 0.17
GDHNKLRSTIANLLQIN [YML103C/NUP188]	2.27 ± 0.054	2.35 ± 0.069	1.45 ± 0.13	1.87 ± 0.035
ASDLVLIVIDVVEGVTF [SNU114]	1.33 ± 0.041	1.58 ± 0.059	2.07 ± 0.1	2.38 ± 0.047
RKEGPTIYYVDSDGTRL [PRE2]	2.24 ± 0.048	1.9 ± 0.034	2.03 ± 0.074	2.32 ± 0.034
IEQGIPKHSYLSGNPLT [SIR4]	2.86 ± 0.07	2.88 ± 0.076	3.13 ± 0.17	2.96 ± 0.061
LFEIYRDLGDDRVFNVP [YJR042W/NUP85]	2.87 ± 0.11	3.2 ± 0.1	2.75 ± 0.11	2.89 ± 0.097
FKLQEEERERKDQYVPE [RPS17A]	3.14 ± 0.14	3.38 ± 0.091	3.4 ± 0.061	3.24 ± 0.093
QIVQVLKQPPFQITLSS [SSN8]	2.12 ± 0.062	2.06 ± 0.074	1.86 ± 0.094	2.54 ± 0.081
SLKGVDPKFRRNHKHAL [RPL29]	1.45 ± 0.068	1.77 ± 0.077	1.78 ± 0.082	1.78 ± 0.12
AAEGLCKLFLADVFTDD [YCG1]	3.25 ± 0.061	3.26 ± 0.061	3.14 ± 0.043	3.14 ± 0.039
ISSHSHPVSLISFAIYS [RRP42]	1.51 ± 0.052	1.62 ± 0.058	1.86 ± 0.075	1.54 ± 0.033
GVMLWKEFDETIFNLPK [FAS1]	1.75 ± 0.073	1.56 ± 0.12	1.15 ± 0.21	2.81 ± 0.2
MEGNAQPVNFNRSWDHA [RPO31]	2.22 ± 0.11	2.31 ± 0.071	2.39 ± 0.13	2.35 ± 0.067
KQLTLLRSKLFQFKLLQ [SMC4]	1.93 ± 0.051	1.88 ± 0.048	1.69 ± 0.064	2.34 ± 0.038
PKNVPTSKWLNSITSGG [YDL116W/NUP84]	2.35 ± 0.072	2.56 ± 0.068	2.23 ± 0.14	2.6 ± 0.064
PDSCNMQEKAAHIAKNL [YCS4]	2.15 ± 0.15	1.55 ± 0.2		1.47 ± 0.093
IIVAGYDDKNKGEVYTI [PRE3]	3 ± 0.083	3.12 ± 0.096	3.42 ± 0.089	3.45 ± 0.098
GVSIENENKVIIELPNE [SRB4]	2.77 ± 0.1	3.02 ± 0.1	3.06 ± 0.055	2.6 ± 0.06
DNNITEMLEENFPEASK [YCG1]	2.48 ± 0.097	2.22 ± 0.11	2.59 ± 0.09	2.74 ± 0.052
NRAEGPEELARILQQLK [RGR1]	3.21 ± 0.11	3.17 ± 0.19	3.19 ± 0.12	3.62 ± 0.097
EYIDDHRSGKIVVQLNG [RPS22A]	3.21 ± 0.23	3.28 ± 0.17	2.77 ± 0.13	2.47 ± 0.23
NPIANHTVTNSPNPTLQ [SNF5]	2.64 ± 0.038	2.83 ± 0.046	2.65 ± 0.038	2.65 ± 0.03
PLIIVSDGQSRVKDIHL [RET1]	2.88 ± 0.3	3.58 ± 0.24	3.05 ± 0.2	2.79 ± 0.15
DSKMIQDLSRNTLGKGQ [SNU114]	3.25 ± 0.098	3.34 ± 0.11	3.34 ± 0.12	3.61 ± 0.14
MELSPTYQTERFTKFSD [YDL116W/NUP84]	3.09 ± 0.13	2.74 ± 0.17		2.79 ± 0.22

Sequence	protein stability index (doa10∆)	protein stability index (pdr5∆)	protein stability index (san1∆)	protein stability index (ubr1∆)
EVKTPKIPLFTFAKSKN [SIR4]	2.77 ± 0.054	2.98 ± 0.06	2.57 ± 0.043	2.81 ± 0.042
WHGVHRNPARLMETLRT [RPB2]	1.35 ± 0.073	1.3 ± 0.066	1.55 ± 0.18	1.2 ± 0.045
KTFDYVSDHLDAIYREL [SMC1]	3.31 ± 0.096	3.34 ± 0.12	3.37 ± 0.074	3.12 ± 0.1
IHIDALELAGMDALYEK [SIR3]	2.97 ± 0.1	3.04 ± 0.098	2.71 ± 0.07	2.93 ± 0.079
SVLRDTLVAQNLKQANN [SMC4]	2.68 ± 0.082	2.53 ± 0.06	2.48 ± 0.052	2.33 ± 0.035
GKDRIAINVFPEGYKAK [RPO31]	2.37 ± 0.061	2.28 ± 0.079	2.5 ± 0.07	2.68 ± 0.072
KLKFFPSGEALISSSQD [RPN14]	2.92 ± 0.23			
AMLAAQDVAAKCKEVGI [RPS14B]	2.36 ± 0.061	2.36 ± 0.065	1.99 ± 0.073	1.96 ± 0.044
LMEKNRIRKLTGQNFLT [REC8]	1.36 ± 0.044	1.37 ± 0.038	1.65 ± 0.077	1.33 ± 0.041
SKVREEVGDVCINELDN [RPO31]	3.15 ± 0.095	2.32 ± 0.06	2.84 ± 0.075	3.18 ± 0.065
GRNNGKKLKAVRIIKHT [RPS5]	2.06 ± 0.12	2.25 ± 0.08	1.79 ± 0.09	2.81 ± 0.082
PDTAIDSQMDEASGTPD [GRR1]	2.97 ± 0.062	3.06 ± 0.071	2.89 ± 0.064	3 ± 0.055
QSGSNSGNNSKKRKNKS [ROX3]	2.96 ± 0.17	3.09 ± 0.097	3.02 ± 0.095	3.15 ± 0.066
MLKPNIIFQQLLFWTDP [YCG1]	2.42 ± 0.099	2.28 ± 0.076	1.21 ± 0.093	1.68 ± 0.12
LARGHRVEKIPEIPLVV [RPL4A]		3.42 ± 0.25		
MASTELSLKRTLTDILE [RPN4]	1.26 ± 0.18	2.65 ± 0.17	2.72 ± 0.16	2.02 ± 0.29
LRPRKDSKDGTTLNIKV [SMB1]			3.18 ± 0.12	
AIVCYILFELYKIKGRN [SRP72]	2.01 ± 0.056	2.13 ± 0.059	2.69 ± 0.059	2.15 ± 0.054
TNNTIRYNAKRRNWRRT [RPL39]		3.02 ± 0.22		3.58 ± 0.14
GAEVDEARINELLSSLE [RPP2B]	3.16 ± 0.11	3.5 ± 0.11	3.22 ± 0.077	3.21 ± 0.1
PINGNEAESQWYIEKVI [CSI1]	2.47 ± 0.081	2.88 ± 0.078	3.09 ± 0.1	2.93 ± 0.18
ASKYNCDKSVCRKCYAR [RPL40A]	2.81 ± 0.056	2.9 ± 0.058	2.87 ± 0.046	2.73 ± 0.053
LIAHQRSAWNNNNDNDA [GRR1]	2.25 ± 0.049	2.65 ± 0.039	2.62 ± 0.05	2.65 ± 0.039
GISINNMMEHWDYLQLT [RPO31]	2.84 ± 0.087	2.81 ± 0.073	2.8 ± 0.14	2.65 ± 0.065
NNKIITLVKGPKEPRLK [SKI6]	2.91 ± 0.2	2.86 ± 0.16		3.14 ± 0.081
TRASKVLEQLSGQTPVQ [RPL11A]		3.01 ± 0.12	2.84 ± 0.074	3.06 ± 0.077
